Results: the supplement of paper PMC10567573

B1: ZNF649 (parent)
chain: EHERAHRGEKPHGCSLCGKAFYKR
B2: STX5 (parent)
chain: RSEFTLMAKRIGKDLSNTFAKLEK

Variants of: B1
Test: protein stability index of a GFP-peptide fusion (GPS, HEK-293T) (PSI 1-6); higher = more stable
Settings: c terminus: a fixed tail appended
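Also: lentivirally expressed fusions sorted by FACS into six bins by GFP to DsRed ratio, PSI derived from sequencing read proportions per bin multiplied by bin number.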

Variant | protein stability index
L16M | 1.74
L16V | 3.34
L16N | 2.07
L16R | 2.18
L16T | 2.16
L16Q | 3.02
L16C | 3.54
L16Y | 2.14
E3I | 1.78
E3Y | 1.95
E3F | 2.67
E3H | 2.72
E3N | 2.47
E3D | 2.01
E3M | 1.61
E3T | 1.89
E3A | 1.5
E3G | 1.81
G18V | 2
G18E | 2.77
G18M | 1.72
G18C | 1.59
G18A | 1.43
G18N | 2.49
G18T | 2.34
G18D | 2.45

Variant | protein stability index
C17R | 4.43
C17N | 4.44
C17L | 3.64
C17S | 3.35
C17I | 3.81
C17K | 4.13
A5Q | 2.42
A5E | 1.83
A5I | 1.34
A5T | 3.23
A5L | 2.24
A5C | 2.8
A5Y | 2.58
A5V | 1.62
A5G | 1.52
E1D | 2.2
E1K | 3.37
E1A | 2.16
E1Y | 2.38
E1T | 3.46
E1W | 1.85
E1P | 2.15
E1I | 1.49
E1H | 1.86
E1N | 1.69
E1Q | 2.07

Variant | protein stability index
H12P | 1.7
H12A | 2.74
H12F | 3.39
H12K | 2.49
H12G | 1.89
H12S | 1.32
H12E | 2
H12N | 1.47
H12R | 1.66
H2G | 1.02
H2V | 1.07
H2T | 3.15
H2N | 1.93
H2S | 1.75
H2D | 2
H2F | 2.8
H2W | 1.03
H2L | 1.6
H2P | 1.98
Y22Q | 2.36
Y22V | 1.36
Y22K | 3.13
Y22L | 2.68
Y22T | 1.93
Y22W | 1.81
Y22P | 1.52

Variant | protein stability index
Y22D | 2.48
G13T | 2.42
G13N | 2.89
G13Y | 3.31
G13E | 2.48
G13V | 2.03
G13A | 2.43
G13L | 2.2
A20C | 2
A20I | 1.95
A20M | 2.62
A20D | 2.51
A20V | 1.79
A20N | 1.83
A20K | 2.74
R24C | 4.03
R24T | 4.1
R24Q | 4.13
R24W | 3.25
R24A | 3.46
R24Y | 3.5
R24G | 3.11
F21D | 2.34
F21T | 2.14
F21G | 2.11
F21S | 2.13

Variant | protein stability index
F21P | 2.74
F21H | 3.38
F21L | 3.61
F21V | 2.01
F21C | 2.13
K19H | 2.44
K19T | 1.97
K19M | 2.01
K19C | 1.78
K19V | 1.44
K19E | 1.73
K19I | 1.61
K19Y | 2.19
K23S | 2.03
K23G | 2.65
K23M | 3
K23D | 1.9
K23H | 1.83
K23L | 1.77
K23T | 2.8
K23I | 1.92
S15V | 1.67
S15P | 4.16
S15L | 2.27
S15Y | 2.48
S15I | 2.01

Variant | protein stability index
S15Q | 1.41
S15A | 1.84
S15H | 5.95
S15K | 3.12
S15M | 1.93
S15G | 1.56
S15W | 1.72
E9F | 2.21
E9R | 3.66
E9V | 1.42
E9A | 2.28
E9T | 1.81
E9Y | 2.19
E9N | 1.85
E9W | 1.59
E9S | 1.72
C14N | 4.12
C14A | 4.66
C14G | 4.18
C14R | 3.73
C14I | 4.24
C14T | 3.91
C14H | 4.25
R4A | 1.97
R4W | 1.88
R4M | 2.08

Variant | protein stability index
R4I | 1.91
R4Y | 1.5
R4V | 2.93
R4N | 2.23
R4C | 3.31
R7G | 1.61
R7K | 2.34
R7Q | 2.02
R7C | 1.65
R7H | 2.31
R7L | 1.48
R7E | 1.95
R7F | 1.32
R7D | 1.98
R7W | 2.02
K10S | 1.66
K10T | 3.02
K10F | 2.98
K10D | 2.27
K10I | 1.69
K10A | 2.12
K10R | 1.01
K10Q | 3.07
P11W | 1.9
P11T | 2.54
P11R | 1.45

Variant | protein stability index
P11H | 2.41
H6G | 1.21
H6L | 1.61
H6Y | 1.61
H6V | 1.58
H6W | 1.78
H6D | 2.01
H6K | 1.04
H6I | 1.54
H6N | 2.06
G8K | 2.27
G8T | 1.91
G8N | 2.12
G8I | 2.01
G8W | 2.21
G8Q | 3.17
G8Y | 3.18
G8D | 1.93
G8F | 2.22

Variants of: B2
Test: as above
Settings: c terminus: a fixed tail appended

Variant | protein stability index
T18E | 2.94
T18M | 2.63
T18W | 1.96
T18C | 2.41
T18N | 1.27
T18H | 2.41
T18S | 1
T18R | 1.77
T18F | 4.45
T18K | 3.25
T18D | 3.07
T18A | 2.31
T18Y | 3.54
T18P | 2.45
T18I | 3.4
T18G | 3.21
T18V | 2.21
T18Q | 2.02
E23W | 2.37
E23L | 3
E23H | 3.8
E23D | 2.2
E23I | 2.84

Variant | protein stability index
E23C | 3.47
E23F | 2.65
E23A | 1.98
E23K | 5.04
E23S | 2.18
E23M | 1.34
E23P | 2.32
L22A | 2.29
L22R | 2.57
L22M | 2.58
L22G | 3.27
L22I | 4.01
L22Y | 1.5
L22K | 2.47
L22S | 3.17
L22F | 2.67
L22C | 1.79
L22N | 3.15
L22E | 3.74
L22D | 4.25
L22P | 3.06
L22T | 2.7
L22V | 1.9

Variant | protein stability index
L22H | 2.7
L22Q | 2.92
K21R | 2.53
K21C | 2.69
K21F | 2.61
K21A | 1.96
K21T | 2.01
K21E | 2.04
K21Q | 2.8
K21P | 2.38
K21D | 1.91
K21I | 2.12
K21H | 2.51
K21Y | 1.45
K21S | 2.95
K21L | 2.47
K21G | 2.21
K21N | 1.04
K21V | 1.4
K21M | 1.94
F19V | 1.96
F19H | 3.27
F19E | 4.74

Variant | protein stability index
F19I | 2.24
F19R | 3.88
F19T | 3.8
F19N | 3.42
F19W | 2.48
F19M | 1.62
F19S | 3.85
F19C | 2.69
F19Q | 3.44
F19A | 2.79
F19D | 4.69
F19Y | 2.38
F19P | 3.94
F19K | 2.71
F19G | 3.57
A20V | 2.24
A20M | 2.64
A20C | 3.2
A20E | 1.58
A20N | 1.84
A20D | 2.15
A20I | 1.63
A20P | 3.3

Variant | protein stability index
A20S | 1.32
A20T | 2.69
A20W | 2.44
K24N | 3.22
K24L | 2.38
K24Y | 3.59
K24G | 4.41
K24V | 2.42
K24P | 2.42
K24E | 1.76
K24R | 2.5
K24M | 3.26
K24S | 1.63
K24Q | 1.66
K24T | 3.14
K24D | 2.61
K24H | 2.46
S16P | 2.46
S16W | 1.99
S16V | 3.75
S16I | 3.35
S16R | 3.34
S16L | 2.89

Variant | protein stability index
S16K | 3.85
S16M | 1.72
S16Y | 3.19
S16Q | 2.14
N17D | 2.63
N17Q | 1.61
N17I | 3.01
N17F | 2.34
N17C | 2.02
N17W | 1.81
N17Y | 1.93
N17P | 2.5
N17S | 3.13
N17A | 3.04
N17L | 2.21
N17E | 3.15
N17T | 2.75
N17G | 3
